From article PMC4491233

Target: GST-MSY3 phosphorylated in vitro by Akt (UniProt Q9JKB3)
Test: EMSA
Settings: prior phosphorylation by Akt; binding reduced more than 50%; EMSA per earlier protocol (ref 16), 8% non-denaturing polyacrylamide gel; binding buffer, pH and temperature not given. Kinase pre-treatment: 10 mM MgCl2, 2 mM …

GST-MSY3 phosphorylated in vitro by Akt, sequence (Q9JKB3 whole entry): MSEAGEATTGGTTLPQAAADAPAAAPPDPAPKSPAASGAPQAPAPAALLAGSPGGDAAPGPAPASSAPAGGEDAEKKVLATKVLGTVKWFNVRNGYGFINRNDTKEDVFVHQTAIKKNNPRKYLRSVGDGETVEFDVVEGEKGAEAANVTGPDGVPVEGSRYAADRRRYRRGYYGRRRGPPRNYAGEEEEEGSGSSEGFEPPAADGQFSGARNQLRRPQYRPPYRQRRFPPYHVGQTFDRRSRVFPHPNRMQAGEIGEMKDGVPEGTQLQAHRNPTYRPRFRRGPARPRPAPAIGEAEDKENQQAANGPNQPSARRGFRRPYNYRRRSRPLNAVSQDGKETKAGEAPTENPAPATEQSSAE

## TCTTGATGTGCAGCAACAGCT (double strand) [MYOwt (myogHCE)]
  binding signal (% of unphosphorylated GST-MSY3): < 50
